The source of these data is patent US20240067729A1.

For assay [1], the target named is human PD-L1 Fc fusion (hPD-L1-Fc) (human) (UniProt Q9NZQ7). The assay can be described thus: blocking ELISA: residual biotin-hPD-1-Fc signal on coated hPD-L1-Fc, negative control.
Assay [2] deals with cynomolgus PD-L1, his tagged (cPD-L1-his) (cynomolgus (Macaca fascicularis)) (UniProt G7PSE7). The assay can be described thus: ELISA on coated cPD-L1-his, negative control. For orientation: An ELISA detects its analyte on a solid surface through an enzyme-linked reagent.
Sequence of cynomolgus PD-L1, his tagged (cPD-L1-his) (cynomolgus (Macaca fascicularis)) (G7PSE7 entry or part of it limits assumed, form in doubt): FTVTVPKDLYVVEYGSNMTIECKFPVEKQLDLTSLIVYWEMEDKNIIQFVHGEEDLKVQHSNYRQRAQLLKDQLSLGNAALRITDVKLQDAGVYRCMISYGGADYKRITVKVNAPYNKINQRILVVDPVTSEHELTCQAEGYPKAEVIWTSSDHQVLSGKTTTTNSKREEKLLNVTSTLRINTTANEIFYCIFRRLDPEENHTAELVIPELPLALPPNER
The target in assay [3] is human PD-L1, his tagged (hPD-L1-his) (human) (UniProt Q9NZQ7). The assay can be described thus: ELISA on coated hPD-L1-his, negative control.
Sequence of human PD-L1, his tagged (hPD-L1-his) (human) (Q9NZQ7 19-238 limits assumed): as the sequence (G7PSE7 entry or part of it limits assumed, form in doubt) above, with T33A, S34A, N62S, Q68R, R82Q, L173F, A185T, I192T, L215H counted along it

Sequence of human PD-L1 Fc fusion (hPD-L1-Fc) (human) (Q9NZQ7 19-238 limits assumed): as the sequence (G7PSE7 entry or part of it limits assumed, form in doubt) above, with T33A, S34A, N62S, Q68R, R82Q, L173F, A185T, I192T, L215H counted along it

Consider “NEG (negative control of the hybridoma supernatant screen)”, for which the Block Residual % in assay [1] was found to be 60%. In addition, the A450 came to 0.0348 A450 in assay [2] and 0.034 A450 in assay [3].
